From PMC10644391 (2023) come the findings set out here.

Ends that are not written are not given here.

For the assay, the target named is T1, HEG1 cytoplasmic tail 7-mer peptide cytoplasmic tail 7-mer (Homo sapiens, UniProt Q9ULI3, also: Cy5-labelled).
T1 chain: SRRRDYF
Briefly: fluorescence polarization.

B1: KRIT1 417-736 (protein)
chain: KPYEKVRIYRMDGSYRSVELKHGNNTTVQQIMEGMRLSQETQQYFTIWICSENLSLQLKPYHKPLQHVRDWPEILAELTNLDPQRETPQLFLRRDVRLPLEVEKQIEDPLAILILFDEARYNLLKGFYTAPDAKLITLASLLLQIVYGNYESKKHKQGFLNEENLKSIVPVTKLKSKAPHWTNRILHEYKNLSTSEGVSKEMHHLQRMFLQNCWEIPTYGAAFFTGQIFTKASPSNHKVIPVYVGVNIKGLHLLNMETKALLISLKYGCFMWQLGDTDTCFQIHSMENKMSFIVHTKQAGLVVKLLMKLNGQLMPTERNS
As for B1, the Kd came to 0.013 µM.
